In article PMC9457596, “Optimization of Bifunctional Antisense Oligonucleotides for Regulation of Mutually Exclusive Alternative Splicing of PKM Gene”:

Biological target: T1, hnRNP A1 (UniProt P09651 2-196)
Assay: EMSA; 150 mM KCl, 50 mM L-Arg, 50 mM L-Glu, 1.5 mM MgCl2, 0.2 mM EDTA, 0.05% BME, 20 mM Na2HPO4, pH 7.0, 4 C, 30 min; 0.5 uM RNA, 0.1-60 uM protein (Kd) or 60 uM (scr)
Conditions: protein: recombinant; label: 5'-6-FAM; G4, intermolecular, two tetrads

T1 sequence (P09651 2-196): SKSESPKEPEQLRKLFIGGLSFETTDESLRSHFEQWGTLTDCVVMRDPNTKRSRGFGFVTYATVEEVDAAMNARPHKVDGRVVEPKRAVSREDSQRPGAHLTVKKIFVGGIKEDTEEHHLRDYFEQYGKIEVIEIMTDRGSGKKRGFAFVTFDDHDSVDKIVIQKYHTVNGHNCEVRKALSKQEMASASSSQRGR

Binder | Kd [µM]
UAGGUUAGGU (structured_RNA) [D2] | 1.2

Same assay, conditions: protein: recombinant; label: 5'-6-FAM; duplex/hairpin

Binder | Kd [µM]
CAGGUGAGUCAGGUGAGU (structured_RNA) [B2] | 1.76
CAGGUGAGUCAGGUGAGUCAGGUGAGU (structured_RNA) [B3] | 1.99

Same assay, conditions: protein: recombinant; label: 5'-6-FAM; no UV melting transition

Binder | Kd [µM]
CAGGUAAGUCAGGUAAGU (ssRNA) [A2] | ~1.7
CAGGUAAGUCAGGUAAGUCAGGUAAGU (ssRNA) [A3] | ~1.7

Same assay, conditions: protein: recombinant; label: 5'-6-FAM; single-stranded

Binder | Kd [µM]
UAGGAUAGGA (ssRNA) [C2] | 1.44

Biological target: T1, hnRNP A1
Assay: EMSA; 60 uM protein, 0.5 uM RNA; 150 mM KCl, 50 mM L-Arg, 50 mM L-Glu, 1.5 mM MgCl2, 0.2 mM EDTA, 0.05% BME, 20 mM Na2HPO4, pH 7.0, 4 C, 30 min; 0.5 uM RNA, 0.1-60 uM protein (Kd) or 60 uM (scr)
Conditions: protein: recombinant; label: 5'-6-FAM

Binder | binding result
UAGGA (ssRNA) [sequence C (3)] | binds
UAGG (ssRNA) [oligo 5] | binds
AAGGUAAGU (ssRNA) [oligo 6] | binds
UGUAGG (ssRNA) [oligo 7] | binds
UAGGU (ssRNA) [sequence D] | binds
AAGGUGAU (ssRNA) [oligo 20] | no binding
CACAGA (ssRNA) [oligo 21] | no binding
AUUUA (ssRNA) [oligo 41] | no binding
CAGGUAAGU (ssRNA) [sequence A (1)] | binds
CAGGUGAGU (ssRNA) [sequence B (2)] | binds
